Experimental data from patent US5344846A, “Compositions and methods for inhibiting deoxyhypusine synthase and the growth of cells” (The United States of America as represented by the …, priority 1992, dated 1994).

Substrate: NCCCCNCCCN
Assay: Inhibition of deoxyhypusine synthase ([3H]deoxyhypusine formation from [3H]spermidine), IC50/Ki
Type: biochemical, rat
Details: pH 9.3; 37.0 °C
Protocol: A typical assay mixture included 0.2M glycine, 1 mM dithiothreitol, 0.5 mM NAD^+, 2.4 micromolar (μM) [1,8-^3 H] spermidine, 1 μM ec-eIF-5A(Lys), 25 micrograms (μg) bovine serum albumin, and 3-15 units of enzyme in a total volume of 20 microliters (μl). Incubations were carried out at pH 9.3 and 37° C. for 1 hour. […] Percent inhibition was plotted versus log inhibitor concentration in order to obtain graphic estimates of IC50 values, i.e., the concentrations inhibiting [^3 H]deoxyhypusine production by 50%. The IC50 values reported in the tables were calculated by fitting the data points to equation 1 where x=% inhibition and I is the inhibitor concentration. […] The nature of the inhibition was determined by plotting reciprocal velocities of [^3 H]deoxyhypusine production against reciprocals of [^3 H]spermidine concentrations at a constant fixed level of ec-eIF-5A(Lys) (1 μM) and at set inhibitor concentrations. […] Estimates of Ki values were made by fitting the data to equation 2; wherein v is the velocity of the reaction, V is the maximum velocity, S is the substrate concentration, Km is Michaeli's constant, Ki is the inhibition constant, and I is the inhibitor concentration.

B1: deoxyhypusine synthase from rat testis (Rattus norvegicus) (protein)
chain: MEGTPSGAAPSSALAAVLKHSSALPPESAQVQGYDFNRGVDYHALLEAYGTTGFQATNFGRAVQQVNAMIEKKLEPLAVDEDHHEDLTQSRRPLTGCTIFLGYTSNLISSGIRETIRYLVQHNMVDVLVTTAGGVEEDLIKCLAPTYLGEFSLRGKELRENGINRIGNLLVPNDNYCKFEDWLMPILDQMVQEQNTEGVKWTPSKMISRLGKEINNPESVYYWAHKNHIPVLSPALTDGSLGDMIFFHSYKNPGLVLDIVEDLRLINMQAIFAKRTGMIILGGGVVKHHIANANLMRNGADYAVYINTAQEFDGSDSGARPDEAVSWGKIRMDAQPVKVYADASLVFPLLVAETFAQKADAFRAEKNED
notes: as catalyzed by deoxyhypusine synthase from rat testis; from tissue; host or cells: rat testis
Km: 4.5 ± 0.7 µM
